# Measurements reported in the DeepSol protein solubility set.
# Assay: soluble on expression in E. coli; label from the status in PepcDB or PDB records
row,Sequence,soluble on expression in E. coli
1,MSLSPLEMALLVHRGEFHLRELEPELPLEKFLKNADPKKTRKFLEKCGKEELERQKELIRKHNVKLVSFWEDDYPQHLREIRYPPAVLFVRGDAELLKEKCVGVVGTRRPTSYGVNVTKRFVKLLSEYFVIVSGMAFGIDSVAHKEALSSGGKTVAVLGTGVDVVYPRSNERLFHEIVKNGCVVSEYPMGTRARKHHFPARNRIIAGLSDAIIVTEAPIKSGALITVKFALESGRDVFAVPGDIDRKTSEGTNYLIKSGAYPLTDEEDLETHFGIRRIASPSLDDDKKKIYDLLRSSPKTVDELVEELGWSVSEVLRVISEMELMGMIWFDGGAYRLLGEGHHHHHH,soluble
2,MGSDKIHHHHHHMNAPLLLRNVGRGESTESGAVPPAVLPPVQPSPTTLQAPDHAARRRIAVFRALQLGDMLCAVPALRALREGEPDAHITLIGLPWVRDFASRFGSLIDDVMVFPGAPGFPERPYDAAALAAFHAEARARRFDLAIQLHGSGTLSNDVVRQLGARTIAGFCPTSAEAALANEHERLLPWPGGNEIERLLGLMRALGYPVVDAHLAFPLRPQDHAGWQRLAELHGLVGGEYICVHPGARMLSRRWPVERFADVALRLRKRWRIVVTGAPDEIMLTHRLCELIGGDVVNLTAATPLGELAALIAHARLLLCNDTGPSHIAAALDTPSVVVSCGGDSDRWAPLDATLHHVLASYPPCRPCNWQKCPIRHECATAITVDAVEAEALSLASRGHDHA,not soluble
3,MGSDKIHHHHHHMRNAVIFTGIPMQYPLELTFKFWALAPQISVIDAQGNLVFYVKQKLFKLKEAITIFADVERTRPLYYIKADRIIDFSARYEFTDSNGTNIGAVKRRGLKSLWRARYDIFDGDTTTLNIQEKNPWVKIADALFAEIPIVGIFTGYVFNPVYLVSRSDGTVVMRLEKIPSFLSRKFTIKQVDQISDREEQQVLLSLMMMLLLERNRG,not soluble
4,MSLLSKFKRNKHQQHLAQLPKISQSVDDVDFFYTPATFRETLLEKIASATQRICIVALYLEQDDGGKGILDALYAAKRQRPELDVRVLVDWHRAQRGRIGAAASNTNADWYCRLAQENPGIDVPVYGVPINTREALGVLHFKGFIIDDSVLYSGASLNDVYLHQHDKYRYDRYQLIRNRQMADIMFDWVTQNLMNGRGVNRLDNTQRPKSPEIKNDIRLYRQELRDASYHFQGDANDEQLSVTPLVGLGKSSLLNKTIFHLMPCAEHKLTICTPYFNLPAVLVRNIIQLLRDGKKVEIIVGDKTANDFYIPEDEPFKIIGALPYLYEINLRRFLSRLQYYVNTDQLVVRLWKDDDNTYHLKGMWVDDKWMLLTGNNLNPRAWRLDLENAILIHDPKQELAPQREKELELIRTHTTIVKHYRDLQSIADYPIKVRKLIRRLRRIRIDRLISRILEGHHHHHH,soluble
5,MGSDKIHHHHHHGNLGKYSIYYAQNLPHETGTNSVMTAVFKHLGDVYIPYNSLDNDGNKMLETEDKTIHYQAGGMFSPTMITVKSTKDGDVLLSLQSDSQFPYCIYDFTENTYYGFNRAGTLVAEFIDSNTNVLSSHRVSALNTVNKLQNEMYGPIISHRKVPKINLQFIYNFVNEGKFK,not soluble
6,MGSDKIHHHHHHMPSDAINEGQAQDAPRMRAAEYVRMSTEHQQYSTENQADKIREYAVRRGIDIIKTYADEGKSGLRIDGRQALQSLIRDVEAGTADFDIILVYDVSRWGRFQDADESAYYEYICRRAGIQVAYCAEQFENDGSPVSTIVKGVKRAMAGEYSRELSAKVFAGQCRLIELGYRQGGPAGYGLRRTLVDVKGEVKAELSRGEHKSLQTDRVILRPGPDEEVTIVNQIYRWFIDDGMYESEIAGRLNGMRVRTDLDREWTRATVREVLTNEKYVGHNVYNRVSFKLKKLRVVNPPEMWIRRDAAFPGVVPPDVFYTAQGIIRARAHRYTNEELIERLRGLYRNRGFLSGVVINETEDMPCAAVYAHRFGSLVRAYQLVGFTPDRDYRYVEINRALRRMHPDVLRQIEGQIAGLGGIVQRDAATDVLIVNGEFTVSIVLARCHEAAGMPNRWKIRLDSSLAPDISVAARLESGNQAVRDYYLLPKVDIGSSNISLAERNAAEFESYRFETLDYLYGMAARSRVRLAA,not soluble
7,MRGSHHHHHHTDPALRACELLGMSANVPTDICFSFTGLVQRGGGTGPHKDGWGITFYEGKGCRTFKDPQPSFNSPIAKLVQDYPIKSCSVVAHIRQANRGEVALENTHPFTRELWGRNWTYAHNGQLTGYKSLETGNFRPVGETDSEKAFCWLLHKLTQRYPRTPGNMAAVFKYIASLADELRQKGVFNMLLSDGRYVMAYCSTNLHWITRRAPFGVATLLDQDVEIDFSSQTTPNDVVTVIATQPLTGNETWQKIMPGEWRLFCLGERVVGLCGR,soluble
8,PQPGAARGLGRVAYADARQHRDILQSLVRALNGSRRRIWLATPYFLPTWKVRRALRKAAQRGVEVRLLLAGRLTDHAPVRYAGQRYYPRLLRAGVRIHEYQPRFLHLKMVMVDDWVSVGSCNFDHWNLRFNLDANLEALDPDFTNEAAASLLADFADSREVTLAMWRARPLWMR,not soluble
9,MAHLSYWFKQALELEQPQPAKPLNEDIAADVAIIGGGYTGLWTAIMIKQQAPKKHVVVIEKGLCGSGASGANGGCMLTWSTKFPTLKRLFGEAQAAWLVKESEQAVLEIDAFCKQHHIDAQLSLKGVYYTATNHVQAGSMQPVVDELSRLGVNSWRRCKEDELHANTGSPRHLEGFHSSVAASVQPALLARGLRRVALEMGIEIFENTPMTKLDFGQPATVSTPDAQIKAKQVVLALNAWMVEHFTQFKNSIVVVSSDMVITKPLGESLRKTGWQAGTSVLDSRIFVHYYRDTPDGRLMLGKGGNQFSFNNQVDVMFNKPTRYQNLLRKSFDKLFPSLKEAEFEYSWTGGSDRSTSGFPFFGKLNEQRNVFYGFGYSGNGVAQTRMGGKILSSMVLGLDNEWTRSGLAKGPLGHFPPEPFRWIGAMTVRNAVRRKEEAEDCGQKPFIWDKWLAKLAGPAGKADKLDLEHHHHHH,soluble
10,MGYSSDTTPCCFAYIARPMPRAHIKEYFYTSGKCSNPAVVFVTRKNRQVCANPEKKWVREYINSLEMS,soluble
11,MIVYGLYKSPFGPITVAKNEKGFVMLDFCDCAERSSLDNDYFTDFFYKLDLYFEGKKVDLTEPVDFKPFNEFRIRVFKEVMRIKWGEVRTYKQVADAVKTSPRAVGTALSKNNVLLIIPCHRVIGEKSLGGYSRGVELKRKLLELEGIDVAKFIEK,soluble
12,MELSPVFARRLYLALLVESLERPNVPKLIEKTGWPRRTIQDVIKAMPGIGIELNFVQDGRRHNDGYYQLSDWGPFDSQWVTERKKDIAASLGFCA,not soluble
13,MGSSHHHHHHSSGRENLYFQGHMFFTDWEGPWILTDFALELCMAVFNNARFFSNLSEYDDYLAYEVRREGYEAGYTLKLLTPFLAAAGVKNRDVERIAELSAKFVPDAEKAMATLQERWTPVVISTSYTQYLRRTASMIGVRGELHGTEVDFDSIAVPEGLREELLSIIDVIASLSGEELFRKLDELFSRSEVRKIVESVKAVGAGEKAKIMRGYCESKGIDFPVVVGDSISDYKMFEAARGLGGVAIAFNGNEYALKHADVVIISPTAMSEAKVIELFMERKERAFEVLSAVSIPETEIYIMENSDFGEVLEKSKRMRVRLRGLAGELGGS,soluble
14,MGHHHHHHSHGRLTLSAQHISHRPCLLSYSLLFWKVHHLFLEGFPCSPRLDEMSFHQFPQHPVHVSVVHLPIVYKGSMTQVSPH,not soluble
15,GIDPFTMVALSLKISIGNVVKTMQFEPSTMVYDACRMIRERIPEALAGPPNDFGLFLSDDDPKKGIWLEAGKALDYYMLRNGDTMEYRKKQRPLKIRMLDGTVKTIMVDDSKTVTDMLMTICARIGITNHDEYSLVRELMEEKKDELNWLDHGRTLREQGVEEHETLLLRRKFFYSDQ,soluble
16,MTIKTLQYDDFMLYRERIRDLLVQIYDINFDVSHDYSINESNKKINLLDEYIKTNQAVLIGAVDGEKLVGFIWIYKHEYFGETRMHINQIIVDKEYKRKGIGKRLLEEAEKKAKELGIKVIDLFVSEKNAEAVNFYEKTGFVTERRYLKKILLEHHHHHH,not soluble
17,PDTSHYALLSNRIVNAVKQYRSQRALEASKDRLSLFIDQSPLGFVEYNQDFEIVRVNETLTEIFGYTETELLGETWETFVSSESYDDVDAVTSALSEASGGYHSVNENVRKDGERIVVEWHNRLVTDDS,not soluble
18,MSTIAAGRFAKDDVDQDTKWWKEYPSKHYIERARPQNYYDEFVQNAWSKSKRLARAASFTNLTYIKDKDMDFPIRKSDSVSTLAPSLALPQYCREAQRIVHTVPVYKPTVHDWYNKSYSDARWRDTHREINKPYKPLDTYISPASSHVPYYSFQTKRIFFDEKARQLAPYLKESQRYMDRYVSSRLKADDYANRFAYTAYEWRKPQDHSFNREFMTTQGVFVATPTGIPHQHYDKFGMRRLYKRTGRFFF,not soluble
19,MNGGCDLWIGCARWLRDMKVLTTDKNGTMLEFASVLRDGILLCRLANTLVPNGIDQKKIMRTNQPSPFLCCNNINYFAMFCKTYFNLEDADLFTAEDLYYMNGFQKVLKTLSFLSHTKESLSRGVDPFPDTDNNQEGTSNGSEFEDDVEIYQSLHDNIENVDPNRTIYGPITSADPEEQQSEQLYDRIVTNRKPSMNENDLQNTPTLKRNRCIRELYDTEKNYVAQALVTIIKTFYEPLKGIIPTSDYNIIFGNIEEINVLHTALLADLEYPVKVALGLSDATPPRPISLNECVPQTIGEVFIKYRDQFLAYGKYCSNLPDSRKLSNELLKTNEFISRNINELTAQGNCKFGMNDLLCVPFQRLTKYPLLLKELQKKTDLASPDRKSLEEAVEVMEDVCNYINEESRDTNAIKVIDEIEQSITDLSMPLNVKLHDYGRVNLDGEVKMAESTLTQAGKPKQRYIFLFDKVIVVCKAANKVMAAKTTGASARTNTFTYKNAYVMSELTIDKNASLDVKSGGTITRRTQYVIIMTRDRNENNEITQLTFYFKNEATRNNWMTALLLSKSNVSPTDYLRDTNHKVAFHSFRVDVKNPATCDVCDKLMKGLQYQGYKCEFHEGDIVVANSNSTPSDLSYLQFAKGDRIEVIKMQGHNRFTGCLINNRNRTGLVHLDHVSQSRTTSMIGLSPIDSPAGSIAPRVVRNESTVLPNKLLSDGSSRSLSGPHGSRSSRNSSSSTINGSMDSVPRQQDYVNTEISEFLWYMGEMERAKAESTLKGTPNGTFLVRYSKNRKQTAISLSYKNDVKHMIIEQNSDGKVYLDEDYIFNSTVELVQYYRSNNLIEIFAALDTCLKNPYSQCKVFKAVHDYDAPSPNNEGKFLSFKTGDIVVLLDTVGEDRGWWKGQVNNKSGFFPLSYVKPYDPATEGSSSPVTPTSSSS,not soluble
20,MGSDKIHHHHHHMPRPFRLSCALLHEPVSSNLMDLKYGDTSFSLAIPPERLMGVIRPSVPAPDSDPAAIISEALDRCADAIATFRTGERVVIVTSDITRYTGSEIYLPLLVERLAAAGVRERDIEIVVALGIHRKQTEHEHQRITGPLYGRIRITDHECDNPGKLVLIGRTSTGVDVVVNRTVAEADRVILTGTIGFHYFAGFGGGRKSILPGVAGRASCMASHYAVLNPGEGTGRNPLATTGNLEGNPVHQTMVEACAMVNPEFILNTVLSPAKRIIAAFAGHWREAHEEGCRFYADRFSFPLKKPADLVVVSCGGYPKDINVIQSHKSMEYGCQALRRGGVMVLLAQCRDGYGNATFFDWFRFRELDAFEARLRSHYEINGQTAFSLLQKARTFSIILVSDLPPEEVRTMGMTPARTLDEAMTAAASLLPSDYTAYVVPEGGTVLPIMM,not soluble
